Source: US20220362303A1

Molecular target: trypsin (T9253, Merck Life Sciences) (UniProt P00760)
Experiment: cell-based or functional assay

T9253 sequence (P00760 24-246): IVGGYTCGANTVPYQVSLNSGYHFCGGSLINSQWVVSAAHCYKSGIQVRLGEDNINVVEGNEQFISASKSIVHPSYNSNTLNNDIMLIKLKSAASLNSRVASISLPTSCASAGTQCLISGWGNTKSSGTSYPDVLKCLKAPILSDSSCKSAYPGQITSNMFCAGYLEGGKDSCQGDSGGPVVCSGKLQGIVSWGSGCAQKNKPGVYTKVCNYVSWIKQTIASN

| µg trypsin inhibited by 1 mg sample (BAPNA trypsin inhibition assay) (µg trypsin inhibited by 1 mg sample) | µg trypsin inhibited (BAPNA trypsin inhibition assay, casein at 0.1 mg/ml) (µg trypsin inhibited) | Substance |
| --- | --- | --- |
| 838 | – | soya bean trypsin inhibitor (SBTI, Roche, Calif., USA) (from UniProt P01070 25-205) |
| 703 | – | Ovomucoid (Sigma, USA) (from UniProt P01005 25-210) |
| 1.43 | – | Human EGF (Peprotech, New Jersey, USA) (from UniProt P01133 971-1023) (ligand) |
| 3.24 | 0.34 | calcium caseinate (C16) |
